Source: US20230203158A1

Assays:
[1] = molecular target: human TNFα (human) (UniProt P01375); test: cell-based or functional assay
[2] = molecular target: IL-10 receptor of HEK-BLUE IL-10 cells (the cells express all the components of the IL-10 signaling pathway); test: cell-based or functional assay

Sequence of human TNFα (human) (P01375 77-233 limits assumed): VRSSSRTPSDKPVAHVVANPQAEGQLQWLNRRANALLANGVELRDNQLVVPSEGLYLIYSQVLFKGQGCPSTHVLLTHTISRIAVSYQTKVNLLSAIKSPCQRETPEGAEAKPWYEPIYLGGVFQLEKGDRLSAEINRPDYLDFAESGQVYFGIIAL

Substance	IC50 (nM, replicate 2), inhibition of TNFα signaling in HEK-BLUE TNFα cells [1]	EC50 (pM), HEK-BLUE IL-10 signaling assay (SEAP) [2]
Etanercept (PRO078) (Fc fusion)	0.07 nM	–
recombinant human IL-10 (BioLegend #573204) (from UniProt P22301 19-178) (ligand)	–	21 pM
